Measurements reported in US20200223932A1.

Assays:
[1] = biological target: recombinant human CD40L (BioLegend Cat. #591706) (human) (UniProt P29965); test: ELISA on coated rh CD40L; IC50 clone/IC50 5c8 x100
[2] = biological target: recombinant human FcγRI (human) (UniProt P12314); test: ELISA, antibody coated on the plate, soluble FcγRI titrated (the axis is its concentration), anti-CD64 and HRP anti-mouse IgG, A450
Chain of UniProt P12314 (P12314 16-288 limits assumed): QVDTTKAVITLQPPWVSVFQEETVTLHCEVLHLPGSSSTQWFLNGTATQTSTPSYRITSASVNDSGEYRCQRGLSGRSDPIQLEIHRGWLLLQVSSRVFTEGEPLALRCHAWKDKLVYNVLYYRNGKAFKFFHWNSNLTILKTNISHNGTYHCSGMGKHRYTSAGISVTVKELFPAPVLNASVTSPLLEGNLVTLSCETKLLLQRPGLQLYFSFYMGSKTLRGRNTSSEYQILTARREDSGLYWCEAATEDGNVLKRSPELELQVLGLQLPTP

Chain of UniProt P29965 (P29965 113-261 limits assumed): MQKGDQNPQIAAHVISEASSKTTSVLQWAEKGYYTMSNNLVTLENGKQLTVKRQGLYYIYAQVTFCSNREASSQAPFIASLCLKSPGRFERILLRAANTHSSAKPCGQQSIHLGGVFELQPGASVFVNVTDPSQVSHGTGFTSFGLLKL

Row | Substance | Rel. Pot. [1] [%] | EC50 (read off the curve) [2] [µg/mL]
1 | anti-CD40L antibody AT-1501 | 95 | 
2 | anti-CD40L antibody 5c8 |  | 0.2
